Measured values reported in US20200115430A1 (I2O THERAPEUTICS, published 2020).
Starred links: 1 amine or outer side, 2 acyl side, 3 side chain; linkers in the order of their positions; H or OH if unused. Positions of bridges follow the written chain, without caps; N, C: chain ends. Groups on a side chain read outwards from the residue. No end group written: not given here. *: point of attachment. C17 diacid = O=C(O)CCCCCCCCCCCCCCCC(=O)*; γGlu = O=C(O)[C@H](CCC(=O)[*:2])N[*:1]

Experiments:
[1] = target: T1, human amylin 3 receptor (human, UniProt P30988 25-474; O60896 24-148); assay: cell-based or functional assay
T1 sequence (looked up) 1: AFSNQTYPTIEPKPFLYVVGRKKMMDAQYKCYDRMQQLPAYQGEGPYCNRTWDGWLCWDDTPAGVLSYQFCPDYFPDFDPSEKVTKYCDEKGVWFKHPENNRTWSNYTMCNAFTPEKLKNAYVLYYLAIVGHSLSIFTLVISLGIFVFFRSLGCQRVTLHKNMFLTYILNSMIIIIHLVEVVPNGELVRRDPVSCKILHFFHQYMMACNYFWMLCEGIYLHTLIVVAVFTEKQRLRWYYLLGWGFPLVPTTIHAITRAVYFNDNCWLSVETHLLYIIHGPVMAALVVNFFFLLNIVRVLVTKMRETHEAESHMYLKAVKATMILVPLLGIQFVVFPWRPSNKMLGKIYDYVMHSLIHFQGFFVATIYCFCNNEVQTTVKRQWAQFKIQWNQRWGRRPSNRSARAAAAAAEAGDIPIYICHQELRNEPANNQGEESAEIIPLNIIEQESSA
T1 sequence (looked up) 2: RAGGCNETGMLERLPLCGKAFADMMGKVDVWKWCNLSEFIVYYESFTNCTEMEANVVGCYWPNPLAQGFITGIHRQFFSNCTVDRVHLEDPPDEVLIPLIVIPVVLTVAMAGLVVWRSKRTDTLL

[2] = target: T2, human calcitonin receptor (human, UniProt P30988 25-474); assay: cell-based or functional assay
T2 sequence (looked up): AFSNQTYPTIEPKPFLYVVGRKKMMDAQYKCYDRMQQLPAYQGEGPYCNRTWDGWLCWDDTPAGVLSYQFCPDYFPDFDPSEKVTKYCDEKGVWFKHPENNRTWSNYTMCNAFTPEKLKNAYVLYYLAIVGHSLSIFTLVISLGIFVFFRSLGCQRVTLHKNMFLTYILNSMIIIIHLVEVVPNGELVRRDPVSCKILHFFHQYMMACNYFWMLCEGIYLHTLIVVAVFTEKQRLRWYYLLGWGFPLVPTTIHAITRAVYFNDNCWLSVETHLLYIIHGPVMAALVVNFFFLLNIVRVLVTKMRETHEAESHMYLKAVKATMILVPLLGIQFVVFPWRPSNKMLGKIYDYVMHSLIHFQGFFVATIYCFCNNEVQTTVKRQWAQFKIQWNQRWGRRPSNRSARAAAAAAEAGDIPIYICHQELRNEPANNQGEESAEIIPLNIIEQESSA

- pEC50 (cAMP accumulation), 0% HSA [1]: 11.3 pEC50
- pEC50 (cAMP accumulation), 0.1% HSA [1]: 10.4 pEC50
- pEC50 (cAMP accumulation), 4% HSA [1]: 8.7 pEC50
- pEC50 (cAMP accumulation), 0% HSA [2]: 10.2 pEC50
- pEC50 (cAMP accumulation), 0.1% HSA [2]: 9.2 pEC50
- pEC50 (cAMP accumulation), 4% HSA [2]: 7.7 pEC50
B1: Compound A80 (peptide)
peptide: SCNTSTCATQRLANEK([γGlu-C17 diacid])HKSSNNFGPILPPTKVGSETY-NH2
modifications: disulfide 2-7; N-terminus assumed
SMILES: CC[C@H](C)[C@H](NC(=O)[C@@H]1CCCN1C(=O)CNC(=O)[C@H](Cc1ccccc1)NC(=O)[C@H](CC(N)=O)NC(=O)[C@H](CC(N)=O)NC(=O)[C@H](CO)NC(=O)[C@H](CO)NC(=O)[C@H](CCCCN)NC(=O)[C@H](Cc1c[nH]cn1)NC(=O)[C@H](CCCCNC(=O)CC[C@H](NC(=O)CCCCCCCCCCCCCCCC(=O)O)C(=O)O)NC(=O)[C@H](CCC(=O)O)NC(=O)[C@H](CC(N)=O)NC(=O)[C@H](C)NC(=O)[C@H](CC(C)C)NC(=O)[C@H](CCCNC(=N)N)NC(=O)[C@H](CCC(N)=O)NC(=O)[C@@H](NC(=O)[C@H](C)NC(=O)[C@@H]1CSSC[C@H](NC(=O)[C@@H](N)CO)C(=O)N[C@@H](CC(N)=O)C(=O)N[C@@H]([C@@H](C)O)C(=O)N[C@@H](CO)C(=O)N[C@@H]([C@@H](C)O)C(=O)N1)[C@@H](C)O)C(=O)N[C@@H](CC(C)C)C(=O)N1CCC[C@H]1C(=O)N1CCC[C@H]1C(=O)N[C@H](C(=O)N[C@@H](CCCCN)C(=O)N[C@H](C(=O)NCC(=O)N[C@@H](CO)C(=O)N[C@@H](CCC(=O)O)C(=O)N[C@H](C(=O)N[C@@H](Cc1ccc(O)cc1)C(N)=O)[C@@H](C)O)C(C)C)[C@@H](C)O
